Data from patent US20130330358A1, “CRYSTAL STRUCTURE AND PEPTIDE INHIBITORS OF HAUSP DEUBIQUITINASE” (priority 2011, published 2013).
Read-outs that look alike come from different tables or passages of the source.

B1: vIRF4^153-256: vIRF4 aa 153-256 region, hexahistidine-tagged, expressed in E. coli (protein)
chain: SDTREQSYEEAGAAAPAPPKAPSGLRGRPRKSNRYYNVGDITTEQKAACSVWIPVNEGASTSGMGSSGTRQVTQASSFTWRVPGDPPAPSTLTGPSDPHSSGAG
modifications: left off: small tags and cut ends
notes: vIRF4 aa 153-256 region, hexahistidine-tagged, expressed in E. coli
B2: vIRF4^153-216: vIRF4 aa 153-216 fragment, hexahistidine-tagged, expressed in E. coli (protein)
chain: SDTREQSYEEAGAAAPAPPKAPSGLRGRPRKSNRYYNVGDITTEQKAACSVWIPVNEGASTSGM
modifications: left off: small tags and cut ends
notes: vIRF4 aa 153-216 fragment, hexahistidine-tagged, expressed in E. coli

Key:
[1] = molecular target: T1, HAUSP TRAF domain HAUSP^62-205 (Homo sapiens, UniProt Q93009); experiment: biochemical; format: binding; details: for n: Table 1a, ITC fit parameter n, 150 mM NaCl, 10 mM HEPES (pH 7.0)
T1 construct: HAUSP^62-205, and HAUSP^62-560 were fused to a hexahistidine-tag2 and expressed in E. coli BL21 (DE3) RIPL cells; hexahistidine (cleaved yes); made in house; host or cells: E. coli BL21 (DE3) RIPL
T1 sequence (Q93009 62-205): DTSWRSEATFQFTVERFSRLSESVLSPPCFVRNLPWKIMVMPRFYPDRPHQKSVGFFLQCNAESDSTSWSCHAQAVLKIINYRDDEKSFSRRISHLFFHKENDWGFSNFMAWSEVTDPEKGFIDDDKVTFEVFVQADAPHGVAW
Description: FIG. 5. Typical isothermal titration calorimetric measurements of the interactions between the HAUSP TRAF domain and the vIRF4 protein derivatives or other peptides. Purified proteins and synthesized peptides were reconstituted in 150 mM NaCl and 10 mM HEPES (pH 7.0). The calorimetric assays were performed using a VPITC system. All experiments were carried out with a stirring speed of 300 rpm at 20° C., and the thermal power was recorded every 10 s. Data were analyzed using the ORIGIN software package (version 7.0). […] Each titration against the HAUSP TRAF domain is indicated in each panel.
Purified proteins and synthesized peptides (Peptron Inc., Deajeon, Korea) were reconstituted in 150 mM NaCl and 10 mM HEPES (pH 7.0). The calorimetric assays were performed using a VP-ITC system (MicroCal Inc., Northampton, Mass.). Samples were degassed by vacuum aspiration for 15 min prior to loading. All experiments were carried out with a stirring speed of 300 rpm at 20° C., and the thermal power was recorded every 10 s. Data were analyzed using the ORIGIN software package (version 7.0) supplied with the instrument. […]

[2] = molecular target: T1, HAUSP TRAF domain HAUSP^62-205; experiment: Size exclusion chromatography, complex formation in 5-fold excess of MDM2^137-152; format: binding; details: in the presence of a 5-fold molar excess of MDM2 peptide

Row | Molecule | Kd ([1]; HAUSP^62-205 and vIRF4^153-256, ITC, read-out: dissociation constant (Kd)) [nM] | Kd ([1]; ITC, 20° C., read-out: Kd) [nM] | n ([1]; 20° C.) | complex formation with the HAUSP TRAF domain [2]
1 | B1 | 76 | 76 | 1.13 ± 0.18 | –
2 | B2 | – | 540 | 0.82 ± 0.09 | formed a stable complex
